Results as given in US20070172423A1, “Composition and method for modulating vasculogenesis for angiogenesis” (priority 1998, published 2007).

Columns and labels:
[1] = biological target: T1, PDGFR-α (Mus musculus, UniProt P26618); experiment: PDGFR-α activation in infarct border region (immunoprecipitation, pTyr Western blot); format: in vivo; conditions: compared to control, after coronary ligation
T1 construct: from tissue; host or cells: mouse heart, infarct border region

[2] = system: hSMC; experiment: Cell migration assay, hSMC; format: cell-based, human; conditions: wounded monolayer, 20 hours
Procedure: Cell migration assays were performed on growth arrested confluent HMVEC, BAEC or hSMC cells. Cell monolayers were wounded with a rubber policeman and washed with serum-free medium. Dishes were then incubated for 20 hours in serum-free medium containing VEGF165, PDGF-AA, (R&D Systems, Minneapolis USA) or PDGF-CC. Each assay included two dishes per condition and was repeated three times independently. Cells were photographed at 40× magnification, and migration percentage corresponding to the ratio between area of the cells and the total area of the wound (Biocom visiol@b 2000 version 4.52, San Diego). […] After 7 days, viable cells were counted using the cell Titer-glo luminescent cell viability assay. […] Two days later, cell numbers were counted and proliferation percentage calculated, using cells cultured in medium containing 10% serum as control. […] Aortic rings were analysed at day 9 of culturing. […]
The mitogenic and chemotactic effect of PDGF-CC was then tested on SMCs and perivascular fibroblast cells, and the effect of PDGF-CC was compared to that of VEGF and PDGF-AA in both cultured cells and the aortic ring assay (Blacher et al., Angiogenesis, 2001 4:133-42). […] In the aortic ring assay, we quantified the growth and emigration of perivascular fibroblasts from the intact vessel using computer-assisted image analysis after treatment with VEGF and different PDGFs at different concentrations. […]

[3] = biological target: PDGF alpha receptors (Homo sapiens, UniProt P16234); experiment: PDGF alpha-receptor phosphorylation in PAE cells; format: cell-based; design: expressed in transfected cells; conditions: 100 ng/ml
Chain of PDGF alpha receptors (P16234 24-1089): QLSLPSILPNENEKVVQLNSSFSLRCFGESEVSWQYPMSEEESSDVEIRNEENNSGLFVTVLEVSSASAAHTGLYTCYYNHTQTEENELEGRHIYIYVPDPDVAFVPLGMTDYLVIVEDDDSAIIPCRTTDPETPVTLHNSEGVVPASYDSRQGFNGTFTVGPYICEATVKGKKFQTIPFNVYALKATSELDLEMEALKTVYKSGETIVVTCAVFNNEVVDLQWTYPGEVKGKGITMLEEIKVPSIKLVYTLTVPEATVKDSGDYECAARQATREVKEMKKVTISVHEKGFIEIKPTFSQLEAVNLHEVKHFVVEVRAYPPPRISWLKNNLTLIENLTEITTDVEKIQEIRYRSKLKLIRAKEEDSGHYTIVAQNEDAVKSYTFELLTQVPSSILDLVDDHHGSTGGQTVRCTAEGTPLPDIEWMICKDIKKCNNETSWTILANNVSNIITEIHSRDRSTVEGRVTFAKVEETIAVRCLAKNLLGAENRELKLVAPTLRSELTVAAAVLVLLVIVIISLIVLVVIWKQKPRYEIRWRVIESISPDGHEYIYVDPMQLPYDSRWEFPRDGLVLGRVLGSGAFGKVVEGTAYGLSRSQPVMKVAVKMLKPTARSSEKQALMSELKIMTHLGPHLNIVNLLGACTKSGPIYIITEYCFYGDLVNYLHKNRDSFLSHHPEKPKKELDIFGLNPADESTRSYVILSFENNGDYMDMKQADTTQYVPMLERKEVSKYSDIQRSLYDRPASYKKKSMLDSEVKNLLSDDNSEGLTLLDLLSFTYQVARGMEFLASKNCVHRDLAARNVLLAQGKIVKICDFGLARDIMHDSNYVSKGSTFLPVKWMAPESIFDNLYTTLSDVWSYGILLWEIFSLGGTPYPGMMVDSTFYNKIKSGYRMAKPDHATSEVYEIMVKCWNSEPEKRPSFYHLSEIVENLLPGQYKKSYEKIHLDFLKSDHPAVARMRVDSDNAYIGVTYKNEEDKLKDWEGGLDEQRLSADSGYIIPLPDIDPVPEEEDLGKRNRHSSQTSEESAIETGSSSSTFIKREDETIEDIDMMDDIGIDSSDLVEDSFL
Procedure: To test if PDGF-C causes increased phosphorylation of the PDGF alpha-receptor, full length and truncated PDGF-C were tested for their capacity to bind to the PDGF alpha-receptor and stimulate increased phosphorylation. Serum-starved porcine aortic endothelial (PAE) cells stably expressing the human PDGF alpha-receptor were incubated on ice for 90 minutes with PBS supplemented with 1 mg/ml BSA and 10 ng/ml of PDGF-AA, 100 ng/ml of full length human PDGF-CC homodimers (flPDGF-CC), 100 ng/ml of truncated PDGF-CC homodimers (cPDGF-CC), or a mixture of 10 ng/ml of PDGF-AA and 100 ng/ml of truncated PDGF-CC. Full length and truncated PDGF-CC homodimers were produced as described above. Sixty minutes after the addition of the polypeptides, the cells were lysed in lysis buffer (20 mM tris-HCl, pH 7.5, 0.5% Triton X-100, 0.5% deoxycholic acid, 10 mM EDTA, 1 mM orthovanadate, 1 mM PMSF 1% Trasylol). […] Bound antibodies were detected using enhanced chemiluminescence (ECL, Amersham Inc). The filters were then stripped and reprobed with the PDGF alpha-receptor rabbit antisera, and the amount of receptors was determined by incubation with horseradish peroxidase-conjugated anti-rabbit antibodies. Bound antibodies were detected using enhanced chemiluminescence (ECL, Amersham Inc). […]

T1 sequence (P26618 25-1089): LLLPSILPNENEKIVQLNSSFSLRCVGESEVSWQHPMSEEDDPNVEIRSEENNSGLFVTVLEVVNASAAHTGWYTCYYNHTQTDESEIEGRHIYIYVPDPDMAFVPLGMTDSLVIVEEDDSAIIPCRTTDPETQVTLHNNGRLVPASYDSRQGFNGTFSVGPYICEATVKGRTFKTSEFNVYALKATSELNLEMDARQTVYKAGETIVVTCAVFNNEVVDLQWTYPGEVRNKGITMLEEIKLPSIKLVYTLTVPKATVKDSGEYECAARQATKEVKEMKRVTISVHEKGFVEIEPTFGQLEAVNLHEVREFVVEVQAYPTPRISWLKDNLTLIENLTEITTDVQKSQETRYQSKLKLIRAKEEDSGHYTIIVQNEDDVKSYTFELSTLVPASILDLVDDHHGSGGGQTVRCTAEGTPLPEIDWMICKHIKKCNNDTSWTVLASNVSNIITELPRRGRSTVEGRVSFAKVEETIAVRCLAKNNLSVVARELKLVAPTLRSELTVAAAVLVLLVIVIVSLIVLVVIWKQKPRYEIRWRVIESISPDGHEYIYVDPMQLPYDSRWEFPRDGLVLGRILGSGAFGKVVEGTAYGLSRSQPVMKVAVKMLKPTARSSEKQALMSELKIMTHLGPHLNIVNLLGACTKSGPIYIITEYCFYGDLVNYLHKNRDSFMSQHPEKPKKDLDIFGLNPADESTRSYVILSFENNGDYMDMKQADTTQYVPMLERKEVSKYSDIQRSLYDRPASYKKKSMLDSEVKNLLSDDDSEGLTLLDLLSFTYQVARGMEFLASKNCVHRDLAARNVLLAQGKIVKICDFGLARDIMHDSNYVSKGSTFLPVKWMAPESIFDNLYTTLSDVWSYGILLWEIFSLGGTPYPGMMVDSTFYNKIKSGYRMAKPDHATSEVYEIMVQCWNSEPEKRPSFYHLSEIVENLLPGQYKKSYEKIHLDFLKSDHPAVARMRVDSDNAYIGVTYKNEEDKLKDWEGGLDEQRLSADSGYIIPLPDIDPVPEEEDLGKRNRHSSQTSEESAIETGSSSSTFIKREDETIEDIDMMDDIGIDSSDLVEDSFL

B1: PDGF-CC: recombinant human PDGF-CC core domain homodimer, residues 230-345 of full-length PDGF-C (SEQ ID NO:40), produced in baculovirus infected insect cells (protein)
chain: GRKSRVVDLNLLTEEVRLYSCTPRNFSVSIREELKRTDTIFWPGCLLVKRCGGNCACCLHNCNECQCVPSKVTKKYHEVLQLRPKTGVRGLHKSLTDVALEHHEECDCVCRGSTGG
modifications: homodimer; PDGF-C core domain
For B1, the “amount of active PDGFR-α in the border region” value [1] was “increased”, the hSMC migration [2] was “stimulated” and the “PDGF alpha-receptor tyrosine phosphorylation” value [3] was “efficiently induced”.
